The source of these data is US6818749.

Assay [1] deals with anti-CC49 variable region (anti-idiotypic) antibodies in the serum of patient one. The experiment in a line: HPLC size exclusion; 5 µg cold competitor + ^125I-HuCC49 + patient serum; less complex = more competition. (Size exclusion chromatography separates by hydrodynamic size, large species first.)
The target of assay [2] is anti-CC49 variable region (anti-idiotypic) antibodies in the serum of patient three. The description is as above.
Assay [3] deals with anti-CC49 variable region (anti-idiotypic) antibodies in the serum of patient five. The assay is described as above.
The target of assay [4] is anti-CC49 variable region (anti-idiotypic) antibodies in the serum of patient two. The description is as above.
The target in assay [5] is anti-CC49 variable region (anti-idiotypic) antibodies in the serum of patient four. The description is as above.
The target in assay [6] is anti-CC49 variable region (anti-idiotypic) antibodies in the serum of patient six. The assay is described as above.
For assay [7], the target named is TAG72 positive bovine submaxillary mucin (BSM) (bovine). Kind of assay: relative affinity constant from competition RIA on BSM.
Assay [8] concerns the target anti-CC49 variable region (anti-idiotypic) antibodies in the serum of patient one. Kind of assay: HPLC size exclusion; ^125I-HuCC49 + patient serum, no competitor.
The target in assay [9] is anti-CC49 variable region (anti-idiotypic) antibodies in the serum of patient three. Described as above.
Assay [10] concerns the target anti-CC49 variable region (anti-idiotypic) antibodies in the serum of patient five. The description is as above.
The target of assay [11] is anti-CC49 variable region (anti-idiotypic) antibodies in the serum of patient two. Described as above.
For assay [12], the target named is anti-CC49 variable region (anti-idiotypic) antibodies in the serum of patient four. Described as above.
Assay [13] concerns the target anti-CC49 variable region (anti-idiotypic) antibodies in the serum of patient six. The assay is described as above.
Assay [14] deals with anti-CC49 variable region (anti-idiotypic) antibodies in the serum of patient two. Kind of assay: HPLC competition, serial dilutions of cold competitor vs ^125I-HuCC49 with serum of patient two.
The target in assay [15] is anti-idiotypic antibodies to MAb CC49 in the serum of one patient (not named, Example V). Kind of assay: HPLC size-exclusion competition: cold competitor vs ^125I-HuCC49 for complex formation with patient serum.
For assay [16], the target named is mouse anti-idiotypic MAb AI49-1 (γ-subset). Kind of assay: competition RIA vs ^125I-murine CC49 on adsorbed AI49-1.
The target in assay [17] is mouse anti-idiotypic MAb AI49-3 (β-subset). The experiment in a line: competition RIA vs ^125I-murine CC49 on adsorbed AI49-3.

Positions count from the first letter of the chain named.

B1: HuCC49 CDR variant L-1 (antibody, V domains shown)
VH: QVQLVQSGAEVVKPGASVKISCKASGYTFTDHAIHWVKQNPGQRLEWIGYFSPGNDDFKYNERFKGKATLTADTSASTAYVELSSLRSEDTAVYFCTRSLNMAYWGQGTLVTVSS
VL: DIVMSQSPDSLAVSLGERVTLNCKSSQSVLYSSNSKNYLAWYQQKPGQSPKLLIYWASARESGVPDRFSGSGSGTDFTLTISSVQAEDVAVYYCQQYYSYPLTFGAGTKLELK
Consider B1, for which the percent of complexes in assay [1] came to 12.2%; in assay [2], 9.8%; in assay [3], 14.3%; in assay [4], 16.9%; in assay [5] it was 10.1%; in assay [6], 16%. Moreover, the fold less than the Ka of HuCC49 in assay [7] is 2 fold.

B2: HuCC49 CDR variant H-3 (antibody, V domains shown)
VH: QVQLVQSGAEVVKPGASVKISCKASGYTFTDHAIHWVKQNPGQRLEWIGYFSPGNDDFKYNERFKGKATLTADTSASTAYVELSSLRSEDTAVYFCTRGGYYGSGSGSNYWGQGTLVTVSS
VL: B1 VL with V29L, S33G, S35Q
B2: the percent of complexes came out at 5.1% in [1]; 3.7% in assay [2]; 4.6% in assay [3]; 6.7% in assay [4]; 8.2% in [5]; 7.3% in assay [6].

B3: humanized monoclonal antibody HuCC49 (parental HuCC49) (antibody, V domains shown)
VH: B1 VH
VL: B1 VL with V29L, S33G, S35Q
Regarding B3, the percent of complexes in assay [1] stood at 0%; in [2], 2.6%; in assay [3], 3%; in [4] it was 1.5%; in assay [5], 0.5%; in assay [6], 0%. The percent of complexes turned out to be 46.2% in [8]; 24.5% in [9]; 42.9% in [10]; 32.2% in assay [11]; 56.8% in assay [12]; 33.5% in assay [13]. For the same molecule, in assay [14], the amount of competitor for 25% competition stood at 60 ng.

B4: HuCC49 CDR variant H-1 (antibody, V domains shown)
VH: B1 VH with D31S, H32Y, I34M
VL: B1 VL with V29L, S33G, S35Q
Turning to B4, the percent of complexes was 3.9% in assay [1]; 3.3% in assay [2]; 3.5% in assay [3]; 5.8% in [4]; 7% in assay [5]; 10.2% in assay [6].

B5: HuCC49 variant ^97L1,2 (antibody, V domains shown)
VH: B1 VH
VL: B1 VL with A59T, T103S
In [7], B5 had a fold less than the Ka of HuCC49 of 2 to 3 fold.

B6: HuCC49 CDR variant L-1,2 (antibody, V domains shown)
VH: B1 VH
VL: B1 VL with A59T
Regarding B6, the percent of complexes was found to be 24.5% in assay [1]; 12.6% in [2]; 20.2% in assay [3]; 15.7% in assay [4]; 19.4% in assay [5]; 24.6% in [6]. For the same molecule, the fold less than the Ka of HuCC49 in assay [7] is 2 fold.

B7: HuCC49 CDR variant L-2 (antibody, V domains shown)
VH: B1 VH
VL: B1 VL with V29L, S33G, S35Q, A59T
As for B7, the percent of complexes in assay [1] is 3.4%; in assay [2], 2.7%; in assay [3] it was 2.4%; in assay [4], 3%; in assay [5], 4.4%; in assay [6] it was 2.7%. Further, the fold better competition than parental HuCC49 in assay [15] worked out at 2 fold.

B8: HuCC49 CDR variant L-3 (antibody, V domains shown)
VH: B1 VH
VL: B1 VL with V29L, S33G, S35Q, Y100T, L102Y, T103S
Take B8: the percent of complexes in assay [1] stood at 48.2%; in assay [2], 22.4%; in assay [3] it was 46.7%; in assay [4], 33.5%; in assay [5], 37.6%; in assay [6], 34.8%.

B9: HuCC49 CDR variant H-2 (antibody, V domains shown)
VH: QVQLVQSGAEVVKPGASVKISCKASGYTFTDHAIHWVKQNPGQRLEWIGWINAGNGNTKYSQKFQGKATLTADTSASTAYVELSSLRSEDTAVYFCTRSLNMAYWGQGTLVTVSS
VL: B1 VL with V29L, S33G, S35Q
On to B9, for which the fold more competitor for 50% inhibition than HuCC49 in [16] and in assay [17] was 4 to 15 fold throughout. Also, the percent of complexes in assay [1] was determined as 32.5%; in [2], 12.7%; in assay [3] it was 36.6%; in [4], 29.7%; in assay [5], 24.7%; in assay [6], 32.7%. In [7], the fold less than the Ka of HuCC49 was 300 fold.
